Assay results: patent publication US20100015637A1 (AbbVie / Abbott, published 2010)

How the values were obtained:
[1] = target: human PlGF-1 comprising amino acids 1-137 produced in human embryonic kidney cells (human) (UniProt P49763); assay: Format 3 Quantikine ELISA, capture MAb264, detection Pb264; sFlt-1 1533 pmol/L (ratio 50)
[2] = target: human PlGF-1 comprising amino acids 1-137 produced in human embryonic kidney cells (human) (UniProt P49763); assay: Format 2 …, capture MAb264, detection Pb264; sFlt-1 0 pmol/L (ratio 0)
[3] = target: human PlGF-1 comprising amino acids 1-137 produced in human embryonic kidney cells (human) (UniProt P49763); assay: Format 2 …, capture MAb264, detection Pb264; sFlt-1 3067 pmol/L (ratio 100)
[4] = target: human PlGF-1 comprising amino acids 1-137 produced in human embryonic kidney cells (human) (UniProt P49763); assay: Format 1 …, capture 2-826-335, detection 1-255-713; sFlt-1 2300 pmol/L (ratio 75)
[5] = target: human PlGF-1 comprising amino acids 1-137 produced in human embryonic kidney cells (human) (UniProt P49763); assay: Format 3 Quantikine ELISA, capture MAb264, detection Pb264; sFlt-1 307 pmol/L (ratio 10)
[6] = target: human PlGF-1 comprising amino acids 1-137 produced in human embryonic kidney cells (human) (UniProt P49763); assay: Format 3 Quantikine ELISA, capture MAb264, detection Pb264; sFlt-1 77 pmol/L (ratio 2.5)
[7] = target: T1, CHO human PlGF-1 comprising amino acids 1-137 (human PlGF-1-His (1-131), CHO 6305) (human, UniProt P49763 19-221, N-glycans at N21 (completely glycosylated) and N89 (partially glycosylated)); assay: … sandwich, capture MAb826, detection pAb264; antigen 250 pg/mL
T1 construct: Mature human PlGF-1 with 6xHis tag (137 amino acids); also called CHO (1-137)
T1 sequence: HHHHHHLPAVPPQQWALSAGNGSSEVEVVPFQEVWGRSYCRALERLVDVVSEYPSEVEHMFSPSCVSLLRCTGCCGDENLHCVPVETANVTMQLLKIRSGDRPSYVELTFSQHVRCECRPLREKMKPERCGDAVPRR

[8] = target: T2, human PlGF-1 comprising amino acids 1-137 produced in human embryonic kidney cells (human, UniProt P49763 19-221); assay: as above
T2 construct: Mature human PlGF-1 with 6xHis tag; also called HEK (1-137); full length HEK human PlGF-1 (1-137)
T2 sequence: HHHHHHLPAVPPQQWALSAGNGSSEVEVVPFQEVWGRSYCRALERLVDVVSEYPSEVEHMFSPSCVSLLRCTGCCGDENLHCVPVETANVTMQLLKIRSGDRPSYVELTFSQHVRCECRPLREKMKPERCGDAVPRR

[9] = target: T3, CHO human PlGF-1 fragment (comprising amino acids 17-131; ATCC PTA-8540) (human, UniProt P49763 35-221); assay: as above
T3 sequence: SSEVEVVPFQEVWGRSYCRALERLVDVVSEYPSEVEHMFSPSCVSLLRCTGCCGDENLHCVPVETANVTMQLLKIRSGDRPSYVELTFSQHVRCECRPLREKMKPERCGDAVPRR

[10] = target: T4, human PlGF-1 fragment (comprising amino acids 17-131) produced in human embryonic kidney cells (human, UniProt P49763 35-221); assay: as above
T4 sequence: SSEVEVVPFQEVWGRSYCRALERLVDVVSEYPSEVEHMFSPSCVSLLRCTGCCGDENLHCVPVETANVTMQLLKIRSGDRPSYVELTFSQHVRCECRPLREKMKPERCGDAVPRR

[11] = target: recombinant human PlGF-1 (comprising amino acids 1-131) expressed in E. coli (R&D Systems) (human) (UniProt P49763); assay: … sandwich, capture MAb826, detection pAb264; antigen 15 pg/mL
[12] = target: recombinant human PlGF-1 (comprising amino acids 1-131) expressed in E. coli (R&D Systems) (human) (UniProt P49763); assay: … sandwich, capture MAb255, detection pAb264; antigen 250 pg/mL
[13] = target: T1, CHO human PlGF-1 comprising amino acids …; assay: … sandwich, capture MAb255, detection MAb826; antigen 750 pg/mL
Outline: (§1)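 Human PlGF-1 antigen preparations, including CHO cell-expressed recombinant forms, spanned 0 to 1500 pg/mL in a sandwich immunoassay. A monoclonal anti-human PlGF-1 antibody, immobilized on magnetic microparticles through passive coating and EDAC cross-linking, captured the antigen, and an acridinium ester-labeled monoclonal anti-human PlGF-1 antibody detected it. Chemiluminescent relative light units (RLU) were recorded for every antigen level.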

[14] = target: T2, human PlGF-1 comprising amino acids …; assay: as above
Outline: as §1

[15] = target: T3, CHO human PlGF-1 fragment (comprising …); assay: as above
Outline: as §1

[16] = target: T4, human PlGF-1 fragment (comprising amino …); assay: as above
Outline: as §1

[17] = target: T2, human PlGF-1 comprising amino acids …; assay: … sandwich, capture MAb255, detection MAb826; antigen 250 pg/mL
Outline: as §1

[18] = target: T3, CHO human PlGF-1 fragment (comprising …); assay: as above
Outline: as §1

[19] = target: recombinant human PlGF-1 (comprising amino acids 1-131) expressed in E. coli (R&D Systems) (human) (UniProt P49763); assay: … sandwich, capture MAb255, detection pAb264; antigen 60 pg/mL

native sFlt-1, isolated from human placental tissue (from UniProt P17948 27-687) (receptor)
% Inhibition [1]: 52.1%
PlGF-1 Measured [1]: 415 pg/mL
% Inhibition [2]: 0%
PlGF-1 Measured [2]: 786 pg/mL
% Inhibition [3]: 95.7%
PlGF-1 Measured [3]: 33.8 pg/mL
% Inhibition [4]: 93.6%
PlGF-1 Measured [4]: 65 pg/mL
% Inhibition [5]: 32.6%
PlGF-1 Measured [5]: 583 pg/mL
% Inhibition [6]: 18.3%
PlGF-1 Measured [6]: 707 pg/mL

B1: monoclonal antibody 2-826-335 (produced by murine hybridoma cell line 2-826-335, ATCC PTA-8539) (antibody, mouse IgG1, V domains shown)
VH: QVQLKQSGPGLVQPSQSLSITCTVSGFSLTTYGIHWVRQSPGKGLEWLGVMWSGGDTDYDAAFISRLSISKDNSKSQVFFKMNSLQANDTGIYYCARYRFYGMDYWGQGTSVTVSS
VL: AIQMTQSSSSFSVSLGDRVTITCKASEDIYNRFAWYQQKPGNAPRLLISGAASLEAGVPSRFSGSGSGQDYTLSITSLQTEDVATYYCQQYWSTPWTFGGGTKLEIKR
notes: also called MAb826
RLU [7]: 66100 RLU
RLU [8]: 173000 RLU
RLU [9]: 93600 RLU
RLU [10]: 126000 RLU
RLU [11]: 19600 RLU

B2: monoclonal antibody 1-255-713 (produced by murine hybridoma cell line 1-255-713, ATCC PTA-8536) (antibody, mouse IgG2a, V domains shown)
VH: QVHLQQSGAELMKPGASVKISCKATGYTFSSYWIEWVKQRPGHGLEWIGEILPGSVSNNFNEKFKDKATLTADPSSNTAYIQVSSLTSEDSAVYYCARSTGFYYGGNYFDHWGQGTTLAVSS
VL: DVVMTQTPLSLPVSPGDQASISCRSSQSLVHSNGHTYLHWYLQKPGQSPKLLIYKVSNRFSGVPDRVSGSGSGTDFTLKISRVEAEDLGVYFCSQSTHVPPTFGGGTKLEIKR
notes: also called MAb255
RLU [12]: 543000 RLU
RLU [13]: 400000 RLU
RLU [14]: 890000 RLU
RLU [15]: 395000 RLU
RLU [16]: 576000 RLU
RLU [17]: 367000 RLU
RLU [18]: 144000 RLU
RLU [19]: 161000 RLU
